From patent US20140087995A1 (published 2014)
Substitutions are numbered along the chain they refer to. Numbered stars: 1 amine (or outer) side, 2 acyl side, 3 side chain; on linkers, the order of the positions; unused ones are H or OH. Bridge positions count the residues as written; N and C are the ends. Side chains are listed from the residue outwards. Ends that are not written are not given here. * marks the point of attachment. C20 diacid = O=C(O)CCCCCCCCCCCCCCCCCCC(=O)*; γGlu = O=C(O)[C@H](CCC(=O)[*:2])N[*:1]; AEEA = NCCOCCOCC(=O)O

T1: human amylin receptor (amylin 3(a) receptor: human calcitonin receptor with RAMP-3) (human, UniProt P30988 25-474; O60896 24-148)
T1 sequence (looked up) 1: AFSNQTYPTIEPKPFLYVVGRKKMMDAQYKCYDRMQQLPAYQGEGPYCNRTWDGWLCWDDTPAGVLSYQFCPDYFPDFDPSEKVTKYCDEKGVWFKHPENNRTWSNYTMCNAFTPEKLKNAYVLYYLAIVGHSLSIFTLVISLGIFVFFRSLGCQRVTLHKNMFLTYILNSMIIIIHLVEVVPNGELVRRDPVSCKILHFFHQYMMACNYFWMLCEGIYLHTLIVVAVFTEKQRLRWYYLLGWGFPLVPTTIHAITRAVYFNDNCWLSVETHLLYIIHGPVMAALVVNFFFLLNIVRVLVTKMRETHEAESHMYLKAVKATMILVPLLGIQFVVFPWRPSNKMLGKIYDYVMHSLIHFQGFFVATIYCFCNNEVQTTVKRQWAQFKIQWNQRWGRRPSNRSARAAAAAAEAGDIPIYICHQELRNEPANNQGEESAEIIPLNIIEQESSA
T1 sequence (looked up) 2: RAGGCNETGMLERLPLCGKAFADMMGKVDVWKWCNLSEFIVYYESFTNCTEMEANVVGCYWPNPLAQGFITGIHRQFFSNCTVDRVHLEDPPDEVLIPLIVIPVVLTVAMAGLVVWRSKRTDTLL

T2: human calcitonin receptor (human, UniProt P30988 25-474)
T2 sequence (looked up): T1 sequence (looked up) 1

T3: human amylin receptor (amylin 3(a) receptor: human calcitonin receptor plus RAMP-3) (human, UniProt P30988 25-474; O60896 24-148, limits assumed)
T3 sequence (looked up) 1: T1 sequence (looked up) 1
T3 sequence (looked up) 2: T1 sequence (looked up) 2

T4: human calcitonin receptor (human, UniProt P30988 25-474)
T4 sequence (looked up): T1 sequence (looked up) 1

T5: human calcitonin receptor (human, UniProt P30988 25-474)
T5 construct: whole, on cells; membranes of stably transfected BHK cells (Assay VII); also called hCTR; hCT
T5 sequence (looked up): T1 sequence (looked up) 1

B1: N^α1-[(4S)-4-carboxy-4-(19-carboxynonadecanoylamino)butanoyl]-[Glu14,Arg17,Pro21,Pro27]-h-amylin (peptide)
peptide: KCNTATCATQRLAEFLRHSSPNFGAIPSSTNVGSNTY
modifications: C20 diacid-gGlu on the alpha amino group of the N-terminal residue; disulfide bridge Cys2-Cys7; C-terminal amide
notes: also called compound 9
B2: N^α1-[2-[2-[2-[[2-[2-[2-[[(4S)-4-carboxy-4-(19-carboxynonadecanoylamino)butanoyl]amino]ethoxy]ethoxy]acetyl]amino]ethoxy]ethoxy]acetyl]-[Arg17,Pro21,Pro27]-h-am … (peptide)
peptide: B1 peptide with E14N
modifications: C20 diacid-gGlu-2xOEG on the alpha amino group of the N-terminal residue; disulfide bridge Cys2-Cys7; C-terminal amide
notes: also called compound 24
B3: N^α1-[(4S)-4-carboxy-4-(19-carboxynonadecanoylamino)butanoyl]-[Arg17,Pro21,Pro27,Glu35]-h-amylin (peptide)
peptide: B1 peptide with E14N, N35E
modifications: C20 diacid-gGlu on the alpha amino group of the N-terminal residue; disulfide bridge Cys2-Cys7; C-terminal amide
notes: also called compound 23
B4: N^α1-[2-[2-[2-[[2-[2-[2-[[(4S)-4-carboxy-4-(19-carboxynonadecanoylamino)butanoyl]amino]ethoxy]ethoxy]acetyl]amino]ethoxy]ethoxy]acetyl]-[Glu14,Arg17,Pro21,Pro27 … (peptide)
peptide: {C20 diacid-γGlu-AEEA-AEEA}-KCNTATCATQRLAEFLRHSSPNFGAIPSSTNVGSNTP-NH2
modifications: disulfide 2-7
SMILES: CC[C@H](C)[C@H](NC(=O)[C@H](C)NC(=O)CNC(=O)[C@H](Cc1ccccc1)NC(=O)[C@H](CC(N)=O)NC(=O)[C@@H]1CCCN1C(=O)[C@H](CO)NC(=O)[C@H](CO)NC(=O)[C@H](Cc1c[nH]cn1)NC(=O)[C@H](CCCNC(=N)N)NC(=O)[C@H](CC(C)C)NC(=O)[C@H](Cc1ccccc1)NC(=O)[C@H](CCC(=O)O)NC(=O)[C@H](C)NC(=O)[C@H](CC(C)C)NC(=O)[C@H](CCCNC(=N)N)NC(=O)[C@H](CCC(N)=O)NC(=O)[C@@H](NC(=O)[C@H](C)NC(=O)[C@@H]1CSSC[C@H](NC(=O)[C@H](CCCCN)NC(=O)COCCOCCNC(=O)COCCOCCNC(=O)CC[C@H](NC(=O)CCCCCCCCCCCCCCCCCCC(=O)O)C(=O)O)C(=O)N[C@@H](CC(N)=O)C(=O)N[C@@H]([C@@H](C)O)C(=O)N[C@@H](C)C(=O)N[C@@H]([C@@H](C)O)C(=O)N1)[C@@H](C)O)C(=O)N1CCC[C@H]1C(=O)N[C@@H](CO)C(=O)N[C@@H](CO)C(=O)N[C@H](C(=O)N[C@@H](CC(N)=O)C(=O)N[C@H](C(=O)NCC(=O)N[C@@H](CO)C(=O)N[C@@H](CC(N)=O)C(=O)N[C@H](C(=O)N1CCC[C@H]1C(N)=O)[C@@H](C)O)C(C)C)[C@@H](C)O
notes: also called compound 20
B5: N^α1-[(4S)-4-carboxy-4-(19-carboxynonadecanoylamino)butanoyl]-[Arg17,Pro21,Pro27,Lys35]-h-amylin (peptide)
peptide: B1 peptide with E14N, N35K
modifications: C20 diacid-gGlu on the alpha amino group of the N-terminal residue; disulfide bridge Cys2-Cys7; C-terminal amide
notes: also called compound 34
B6: N^ε1-[(4S)-4-carboxy-4-(19-carboxynonadecanoylamino)butanoyl]-[Arg17,Pro21,Pro27]-h-amylin (peptide)
peptide: K([γGlu-C20 diacid])CNTATCATQRLANFLRHSSPNFGAIPSSTNVGSNTY-NH2
modifications: disulfide 2-7; N-terminus assumed
SMILES: CC[C@H](C)[C@H](NC(=O)[C@H](C)NC(=O)CNC(=O)[C@H](Cc1ccccc1)NC(=O)[C@H](CC(N)=O)NC(=O)[C@@H]1CCCN1C(=O)[C@H](CO)NC(=O)[C@H](CO)NC(=O)[C@H](Cc1c[nH]cn1)NC(=O)[C@H](CCCNC(=N)N)NC(=O)[C@H](CC(C)C)NC(=O)[C@H](Cc1ccccc1)NC(=O)[C@H](CC(N)=O)NC(=O)[C@H](C)NC(=O)[C@H](CC(C)C)NC(=O)[C@H](CCCNC(=N)N)NC(=O)[C@H](CCC(N)=O)NC(=O)[C@@H](NC(=O)[C@H](C)NC(=O)[C@@H]1CSSC[C@H](NC(=O)[C@@H](N)CCCCNC(=O)CC[C@H](NC(=O)CCCCCCCCCCCCCCCCCCC(=O)O)C(=O)O)C(=O)N[C@@H](CC(N)=O)C(=O)N[C@@H]([C@@H](C)O)C(=O)N[C@@H](C)C(=O)N[C@@H]([C@@H](C)O)C(=O)N1)[C@@H](C)O)C(=O)N1CCC[C@H]1C(=O)N[C@@H](CO)C(=O)N[C@@H](CO)C(=O)N[C@H](C(=O)N[C@@H](CC(N)=O)C(=O)N[C@H](C(=O)NCC(=O)N[C@@H](CO)C(=O)N[C@@H](CC(N)=O)C(=O)N[C@H](C(=O)N[C@@H](Cc1ccc(O)cc1)C(N)=O)[C@@H](C)O)C(C)C)[C@@H](C)O
notes: Synthetic acylated analogue of human amylin; also called compound 48
B7: N^ε-[2-[2-[2-[[(4S)-4-carboxy-4-(19-carboxynonadecanoylamino)butanoyl]amino]ethoxy]ethoxy]acetyl]Lys[Arg1,Arg17,Pro21,Pro27,His35]-h-amylin (peptide)
peptide: K([AEEA-γGlu-C20 diacid])RCNTATCATQRLANFLRHSSPNFGAIPSSTNVGSHTY-NH2
modifications: disulfide 3-8; N-terminus assumed
SMILES: CC[C@H](C)[C@H](NC(=O)[C@H](C)NC(=O)CNC(=O)[C@H](Cc1ccccc1)NC(=O)[C@H](CC(N)=O)NC(=O)[C@@H]1CCCN1C(=O)[C@H](CO)NC(=O)[C@H](CO)NC(=O)[C@H](Cc1c[nH]cn1)NC(=O)[C@H](CCCNC(=N)N)NC(=O)[C@H](CC(C)C)NC(=O)[C@H](Cc1ccccc1)NC(=O)[C@H](CC(N)=O)NC(=O)[C@H](C)NC(=O)[C@H](CC(C)C)NC(=O)[C@H](CCCNC(=N)N)NC(=O)[C@H](CCC(N)=O)NC(=O)[C@@H](NC(=O)[C@H](C)NC(=O)[C@@H]1CSSC[C@H](NC(=O)[C@H](CCCNC(=N)N)NC(=O)[C@@H](N)CCCCNC(=O)COCCOCCNC(=O)CC[C@H](NC(=O)CCCCCCCCCCCCCCCCCCC(=O)O)C(=O)O)C(=O)N[C@@H](CC(N)=O)C(=O)N[C@@H]([C@@H](C)O)C(=O)N[C@@H](C)C(=O)N[C@@H]([C@@H](C)O)C(=O)N1)[C@@H](C)O)C(=O)N1CCC[C@H]1C(=O)N[C@@H](CO)C(=O)N[C@@H](CO)C(=O)N[C@H](C(=O)N[C@@H](CC(N)=O)C(=O)N[C@H](C(=O)NCC(=O)N[C@@H](CO)C(=O)N[C@@H](Cc1c[nH]cn1)C(=O)N[C@H](C(=O)N[C@@H](Cc1ccc(O)cc1)C(N)=O)[C@@H](C)O)C(C)C)[C@@H](C)O
notes: Synthetic acylated analogue of human amylin, extended by Lys at the N-terminus; also called compound 45
B8: N^-1-[(4S)-4-carboxy-4-(19-carboxynonadecanoylamino)butanoyl]-Gly[Arg1,Arg17,Pro21,Pro27]-h-amylin (peptide)
peptide: {C20 diacid-γGlu}-GRCNTATCATQRLANFLRHSSPNFGAIPSSTNVGSNTY-NH2
modifications: disulfide 3-8
SMILES: CC[C@H](C)[C@H](NC(=O)[C@H](C)NC(=O)CNC(=O)[C@H](Cc1ccccc1)NC(=O)[C@H](CC(N)=O)NC(=O)[C@@H]1CCCN1C(=O)[C@H](CO)NC(=O)[C@H](CO)NC(=O)[C@H](Cc1c[nH]cn1)NC(=O)[C@H](CCCNC(=N)N)NC(=O)[C@H](CC(C)C)NC(=O)[C@H](Cc1ccccc1)NC(=O)[C@H](CC(N)=O)NC(=O)[C@H](C)NC(=O)[C@H](CC(C)C)NC(=O)[C@H](CCCNC(=N)N)NC(=O)[C@H](CCC(N)=O)NC(=O)[C@@H](NC(=O)[C@H](C)NC(=O)[C@@H]1CSSC[C@H](NC(=O)[C@H](CCCNC(=N)N)NC(=O)CNC(=O)CC[C@H](NC(=O)CCCCCCCCCCCCCCCCCCC(=O)O)C(=O)O)C(=O)N[C@@H](CC(N)=O)C(=O)N[C@@H]([C@@H](C)O)C(=O)N[C@@H](C)C(=O)N[C@@H]([C@@H](C)O)C(=O)N1)[C@@H](C)O)C(=O)N1CCC[C@H]1C(=O)N[C@@H](CO)C(=O)N[C@@H](CO)C(=O)N[C@H](C(=O)N[C@@H](CC(N)=O)C(=O)N[C@H](C(=O)NCC(=O)N[C@@H](CO)C(=O)N[C@@H](CC(N)=O)C(=O)N[C@H](C(=O)N[C@@H](Cc1ccc(O)cc1)C(N)=O)[C@@H](C)O)C(C)C)[C@@H](C)O
notes: Synthetic acylated analogue of human amylin, extended by Gly at the N-terminus; also called compound 46
B9: N^α1 N^α1-[(4S)-4-carboxy-4-[[(4S)-4-carboxy-4-(19-carboxynonadecanoylamino)butanoyl]amino]butanoyl]-[Glu14,Arg17,Pro21,Pro27]-h-amylin (peptide)
peptide: {C20 diacid-γGlu-γGlu}-KCNTATCATQRLAEFLRHSSPNFGAIPSSTNVGSNTY-NH2
modifications: disulfide 2-7 (inferred)
notes: analogue of human amylin; the name is printed with N^α1 twice; also called compound 15

Target: T1, human amylin receptor (amylin 3(a) …)
Test: cell-based or functional assay

Binder	hAmylin-R funct. EC50 [pM]
B1	175
B2	433
B3	340
B4	80
B5	313

Target: T2, human calcitonin receptor
Test: cell-based or functional assay

Binder	Ratio hCT/hAmylin funct.	hCTR funct. EC50 [pM]
B1	7.4	1290
B2	23.1	10000
B3	8.9	3020
B4	3.6	285
B5	8.4	2620

Target: T3, human amylin receptor (amylin 3(a) …)
Test: cell-based or functional assay

Binder	Ratio hCT/hAmylin funct. [ratio]	hAmylin-R funct. EC50 [pM]
B6	17	116
B7	17	594
B8	10.2	88

Target: T4, human calcitonin receptor
Test: cell-based or functional assay

Binder	hCTR funct. EC50 [pM]
B6	1970
B7	10100
B8	899

Target: T5, human calcitonin receptor
Test: IC50 on human calcitonin receptor divided by IC50 on human amylin receptor (SPA competition)
Experimental: The resulting pellet was resuspended, homogenized and centrifuged (20.000 rpm, 15 min) in a buffer containing 20 mM Na-HEPES and 0.1 mM EDTA (pH 7.4, buffer 2). The resulting pellet was resuspended in buffer 2 and protein concentration was measured (BCA protein Assay, Pierce). The homogenate was kept cold during the whole procedure. The membranes were kept at −80° C. until use. The assay was performed in a 384 well Optiplate (PerkinElmer) in a total volume of 40 ul. Membranes were mixed with SPA beads. Final concentration of membranes 35 ng/μL final and SPA beads was 0.05 mg/well. Test-compounds were dissolved in DMSO and further diluted in assay buffer (50 mM Hepes, pH 7.4, 1 mM CaCl2, 5 mM MgCl₂, 0.1% OA and 0.02% Tween20). […] The final mixture was incubated with shaking at 400 rpm for 120 min at 25° C. prior to centrifugation (1500 rpm, 10 min). Samples were analyzed on TopCounter™ (Packard). The IC₅₀ was calculated using (one site binding competition analysis) GraphPad Prism5 as a measure of receptor affinity.
Membranes were prepared in the following way; the cells were rinsed with PBS and incubated with Versene for approximately 5 min before harvesting. The cells were flushed with PBS and the cell-suspension was centrifuged for 5 min at 1000 rpm. Cells were homogenized (Ultrathurrax) in a buffer containing 20 mM Na-HEPES and 10 mM EDTA (pH 7.4) and centrifuged at 20.000 rpm for 15 min. The resulting pellet was resuspended, homogenized and centrifuged (20.000 rpm, 15 min) in a buffer containing 20 mM Na-HEPES and 0.1 mM EDTA (pH 7.4, buffer 2). The resulting pellet was resuspended in buffer 2 and protein concentration was measured (BCA protein Assay, Pierce). The homogenate was kept cold during the whole procedure. The membranes were kept at −80° C. until use. Assay was performed in a 384 well Optiplate (PerkinElmer) in a total volume of 40 ul. Membranes were mixed with SPA beads.

Binder	Ratio hCT/hAmylin binding
B9	26
